{
  "source": "patent US20190359693A1",
  "binders": {"B1": {"name": "SD2086 (VHH)", "VHH": "EVQLVESGGGLVQAGGSLRLSCATSGQTFSSYAMGWFRQAPGKEREFVAAISWNGGSTYYADSVKGRFTISRESPENLVYLQMNSLKPEDTAVYYCAARGAYYTGSYYLGSTYDYWGQGTQVTVSS"}, "B2": {"name": "MD2312 (bispecific antibody)", "chain": "EVQLVESGGGLVQAGDSLRLSCAASGPTFGMSAMGWFRQAPGKEREFVAAISGLGNPNYSDDVKGRFTISRENGRNTVYLQMNSLKPEDTAVYYCAQRKVYHVQGGDRPQAYDYWGQGTQVTVSSGGGGSGGGGSEVQLVESGGGLVQAGDSLRISCAASGRTLSIYSMGWFRQAPGKEREFVATIGWNSGRTFYPDSLKGRFTISRDNARNTLYLQMNNLRPEDTAVYYCAAAKGPLRLSSQADYWGQGTQVTVSSGGGGSGGGGSEVQLVESGGGLVQPGGSLRLSCAATGFTLENKAIGWFRQTPGSEREGVLCISKSGSWTYYTDSMRGRFTISRDNAENTVYLQMDSLKPEDTAVYYCATTTAGGGLCWDGTTFSRLASSWGQGTQVTVSS"}},
  "experiment_in_all_cases": "cell-based or functional assay",
  "key": {"[1]": {"target": "HA of B/Brisbane/60/2008 (Victoria) (influenza B virus)"}, "[2]": {"target": "HA of B/Florida/04/2006 (Yamagata) (influenza B virus)"}, "[3]": {"target": "HA of B/Malaysia/2506/04 (Victoria) (influenza B virus)"}, "[4]": {"target": "HA of B/Harbin/7/94 (Yamagata) (influenza B virus)"}, "[5]": {"target": "HA of B/Lee/40 (influenza B virus) (UniProt P03460)"}, "[6]": {"target": "hemagglutinin (HA) of influenza A/Brisbane/10/07 (H3N2) (influenza A virus A/Brisbane/10/07 (H3N2))"}, "[7]": {"target": "hemagglutinin (HA) of influenza A/New Caledonia/20/99 (H1N1) (influenza A virus A/New Caledonia/20/99 (H1N1))"}, "[8]": {"target": "hemagglutinin (HA) of influenza B/Harbin/7/94 (Yamagata lineage) (influenza B virus B/Harbin/7/94)"}, "[9]": {"target": "hemagglutinin (HA) of influenza A/Vietnam/1194/04 (H5N1) (influenza A virus A/Vietnam/1194/04 (H5N1))"}, "[10]": {"target": "hemagglutinin (HA) of influenza B/Brisbane/60/08 (Victoria lineage) (influenza B virus B/Brisbane/60/08)"}, "[11]": {"target": "hemagglutinin (HA) of influenza virus H5N1 A/Vietnam/1194/04 (influenza A virus)"}, "[12]": {"target": "hemagglutinin (HA) of influenza virus H7N3 A/NIBRG/60 (A/mallard/Netherlands/12/00) (influenza A virus)"}, "[13]": {"target": "hemagglutinin (HA) of influenza virus H2N2 A/WF/HK/MPU3156/05 (influenza A virus)"}, "[14]": {"target": "hemagglutinin (HA) of influenza virus H3N2 A/Brisbane/10/07 (influenza A virus)"}, "[15]": {"target": "hemagglutinin (HA) of influenza virus H7N9 A/Anhui/1/13 (influenza A virus)"}, "[16]": {"target": "hemagglutinin (HA) of influenza virus H2N2 A/Guiyang/1/57 (influenza A virus)"}},
  "data": [
    {"binder": "B1", "values": [
      {"measurement": "VNA titer", "setting": "[1]", "result": 934, "unit": "nM"},
      {"measurement": "VNA titer", "setting": "[2]", "result": 815, "unit": "nM"},
      {"measurement": "VNA titer", "setting": "[3]", "result": 546, "unit": "nM"},
      {"measurement": "VNA titer", "setting": "[4]", "result": 964, "unit": "nM"},
      {"measurement": "VNA titer", "setting": "[5]", "result": 273, "unit": "nM"}
    ]},
    {"binder": "TIFGIRVNTMG (Fc fusion)", "note": "[FM1W3]", "values": [
      {"measurement": "Average neutralization titers", "setting": "[6]", "result": 16, "unit": "nM"},
      {"measurement": "Average neutralization titers", "setting": "[7]", "result": 6, "unit": "nM"},
      {"measurement": "Average neutralization titers", "setting": "[8]", "result": 8, "unit": "nM"},
      {"measurement": "Average neutralization titers", "setting": "[9]", "result": 10, "unit": "nM"},
      {"measurement": "Average neutralization titers", "setting": "[10]", "result": 16, "unit": "nM"}
    ]},
    {"binder": "B2", "values": [
      {"measurement": "average neutralization titer", "setting": "[11]", "result": 5.8, "unit": "nM"},
      {"measurement": "average neutralization titer", "setting": "[12]", "result": 7.7, "unit": "nM"},
      {"measurement": "average neutralization titer", "setting": "[13]", "result": 21.6, "unit": "nM"},
      {"measurement": "average neutralization titer", "setting": "[14]", "result": 18.1, "unit": "nM"},
      {"measurement": "average neutralization titer", "setting": "[15]", "result": 43.2, "unit": "nM"},
      {"measurement": "average neutralization titer", "setting": "[16]", "result": "< 1000", "unit": "nM"}
    ]}
  ]
}
